The target in the data set is NS1 (Influenza A virus (A/PR/8/34), UniProt P03496 P03496:1-230). The data set can be described thus: EMSA; 2 pM siRNA with 0-200 pM protein as printed; on ice 20 min; native 5% PAGE. The following applies: tags: N-terminal His tag (pQE31, Qiagen); label: 5'-33P; 19-bp duplex with 3' dTdT overhangs. (Mobility shift assays separate free from complexed probe on a gel.)
NS1, sequence (P03496 whole entry, one chain of several): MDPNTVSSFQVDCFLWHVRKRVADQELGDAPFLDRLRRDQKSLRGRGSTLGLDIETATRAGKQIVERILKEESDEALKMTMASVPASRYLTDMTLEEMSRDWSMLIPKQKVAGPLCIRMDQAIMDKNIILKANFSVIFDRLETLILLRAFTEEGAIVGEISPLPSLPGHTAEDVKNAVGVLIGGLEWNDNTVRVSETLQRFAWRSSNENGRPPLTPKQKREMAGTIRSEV

B1: GL3 luciferase siRNA (dsRNA)
RNA 1: CUUACGCUGAGUACUUCGATT
RNA 2: UCGAAGUACUCAGCGUAAGTT
modifications: 3'-terminal TT of each strand are deoxynucleotides
As to B1, the binding result was “binds”.

The values above are taken from patent publication US20050260166 (Phytovation B.V., published 2005).
